Key:
[1] = target: fibrinogen related-protein 30 (FBN30), insect cell-expressed recombinant (Anopheles gambiae); experiment: SEC; concentrated Hi5 medium on a Superdex 200 10/300 GL column, PBS pH 7.4, 0.4 mL/min, calibrated with protein standards; FBN30 in the fractions quantified by ELISA with anti-FBN30; octamer of four disulfide-linked homodimers
[2] = target: fibrinogen related-protein 30 (FBN30), insect cell-expressed recombinant (Anopheles gambiae); experiment: non-reducing and reducing SDS-PAGE with western blot; 12% SDS-PAGE without or with beta-ME of culture medium of transfected Hi5 cells; FBN30 detected with anti-FBN30 antibody; covalent (disulfide) dimer

- stoichiometry N [1]: 8
- stoichiometry N [2]: 2
Substance: fibrinogen related-protein 30 (FBN30), insect cell-expressed recombinant (natural protein)
